In US20260209301A1, “Galanin-2 Receptor Agonists” (LIFEARC, priority 2022, published 2026):

Tests used:
[1] = molecular target: T1, GALR3 (Homo sapiens, UniProt O60755); test: Luciferase reporter gene assay (SRE), HEK293 Gqi cells; format: cell-based
T1 construct: expressed in transfected cells; host or cells: genetically modified HEK293 Gqi cells, transient
T1 sequence (O60755 1-368): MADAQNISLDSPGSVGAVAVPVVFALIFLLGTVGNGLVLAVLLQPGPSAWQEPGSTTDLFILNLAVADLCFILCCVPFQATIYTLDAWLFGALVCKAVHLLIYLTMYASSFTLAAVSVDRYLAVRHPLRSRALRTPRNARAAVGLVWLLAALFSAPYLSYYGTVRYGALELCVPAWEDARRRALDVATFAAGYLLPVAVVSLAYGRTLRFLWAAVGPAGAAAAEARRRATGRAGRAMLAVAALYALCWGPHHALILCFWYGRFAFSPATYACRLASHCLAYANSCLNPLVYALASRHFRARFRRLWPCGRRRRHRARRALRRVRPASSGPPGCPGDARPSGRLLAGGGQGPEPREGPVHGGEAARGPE
Procedure: GalR3 activity was measured, alongside GalR1 and GalR2, using a luciferase reporter assay. A reporter plasmid and a receptor plasmid, were transiently transfected into the target cell line. The reporter plasmid contains a serum response element (SRE) or a nuclear factor of activated T-cells response element (NFAT-RE) which is coupled to a luciferase transcript and induces expression of the luciferase upon a specific G-protein (Gai uses SRE; Gaq uses NFAT-RE) activation. The target receptor is constantly expressed after cell transfection. For GALR1 and GALR3 screening, genetically modified HEK293 Gqi cells were transiently transfected with the SRE reporter and the receptor (GALR1 and GALR3) plasmids. For GALR2 screening, HEK293 cells were transiently transfected with the NFAT-RE reporter and the receptor (GALR2) plasmid. […] The luciferase activity was analyzed with the Bright-Glo Luciferase Assay (Promega) in an EnSpire plate reader.
Therefore, to measure activity at the GalR3 receptor a reporter gene assay was used. In this system MAP/ERK signalling is used to measure receptor activity. Activation of Gqi coupled receptors leads to downstream activation of ERK1/2. The activated ERK translocates to the nucleus where it phosphorylates and activates transcription factors, which lead to the binding of Serum response element (SRE). In this assay SRE activation induces expression of a luciferase reporter gene. […] To ensure this effect was not an artifact of the reporter gene assay, GalR1 and GalR2 reporter assays (using SRE and NFAT-RE respectively) were also run.

[2] = molecular target: T2, GALR2 (Homo sapiens, UniProt O43603); test: Calcium assay, CHO GalR2 cells (FLIPR); details: mean +/− standard deviation; for GalR2 Calcium, mean pEC50: Table 2, n ≥ 3; for GalR2 activity (calcium assay), warhead length: Table 6
T2 sequence (O43603 1-387): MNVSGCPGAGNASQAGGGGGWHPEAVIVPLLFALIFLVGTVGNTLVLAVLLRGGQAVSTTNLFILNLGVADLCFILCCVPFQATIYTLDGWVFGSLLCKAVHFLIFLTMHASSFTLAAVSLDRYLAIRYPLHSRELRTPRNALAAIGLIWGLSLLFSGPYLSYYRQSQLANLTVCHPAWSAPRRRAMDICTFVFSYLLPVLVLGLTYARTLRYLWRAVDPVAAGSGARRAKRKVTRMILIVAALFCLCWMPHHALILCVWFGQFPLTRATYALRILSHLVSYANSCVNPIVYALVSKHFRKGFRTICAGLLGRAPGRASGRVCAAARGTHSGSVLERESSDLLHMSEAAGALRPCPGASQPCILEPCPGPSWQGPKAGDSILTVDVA
Procedure: CHO GalR2 cells were plated at 10,000 cells per well in black clear bottom plates (corning, USA) and incubated overnight at 37° C. with 5% CO2. […] Ligands were prepared at a 5× concentration and added to cells using the FLIPR (Molecular Devices, USA). Baseline was typically 20 seconds before ligand addition. […] For analysis, fluorescence was normalised to pre-addition baseline and peak fluorescence used for all quantification.
In brief, a panel of functional cell-based microtiter-plate assays were developed using recombinant GalR1 and GalR2 receptors stably expressed in CHO cells. […] Nominally this equated to 10 serial (~3fold) dilutions with highest concentrations of 10-1 μM as appropriate.
In addition to generating both potency and efficacy estimates, the latter being expressed relative to native galanin, both G-protein and non-G-Protein signalling pathways were measured.

[3] = tested on: mouse CFA model of inflammatory pain; test: CFA-induced inflammatory pain model, weight bearing; format: in vivo
From the text: Intraplantar injection of Complete Freunds adjuvant (CFA) causes an inflammatory reaction which induces hypersensitivity and oedema and mimics some aspects of clinical inflammatory pain. These effects can be investigated using equipment to measure the […]. Naive mice distribute their body weight equally between the two hind paws. When the injected hind paw is inflamed and/or painful, the weight is re-distributed so that less weight is put on the affected paw (decrease in weight bearing on injured paw). Weight bearing through each hind limb is measured using an incapacitance tester (Linton Instruments, UK).
Environmental conditions: Animals were housed in standard caging and laboratory conditions in groups of 2-5, with free access to food (5CR4, Purina) and water (except during placement in the incapacitance box) on a 12/12 light/dark cycle. […] Weight bearing: Mice were placed in the incapacitance tester with the hind paws on separate sensors and the average force exerted by both hind limbs was recorded over 2 seconds. […] Prior to test compound treatment, weight bearing readings were taken to assess baseline hypersensitivity 23 hours post-CFA. […] Weight bearing was then assessed at 4, 24, 48 and 72 hours post-test compound treatment.
Weight bearing (g) readings were taken for both right and left hind paws and the difference calculated. […]

[4] = tested on: mouse chemotherapy-induced model of neuropathic pain; test: Oxaliplatin chemotherapy-induced neuropathic pain model, von Frey; format: in vivo; details: 0.1, 1 and 3 mg/kg i.p.; 4 hours post dose (day 5 after Oxaliplatin)
Procedure: Oxaliplatin-induced hypersensitivity: A single dose of Oxaliplatin was injected intraperitoneally (i.p.) at 10 mg/kg at a volume of 10 ml/kg. Oxaliplatin was dissolved in 5% dextrose to 1 mg/ml before use. Animals were injected in the same order in which they were tested.
Static mechanical tactile allodynia: Static mechanical (tactile) allodynia was assessed by measurement of withdrawal threshold using calibrated (force; g) von-Frey monofilaments (Touch-Test Sensory Evaluator; Scientific Marketing Associates) applied to the plantar surface of the hind paw. Animals were placed in individual Perspex boxes on a raised metal mesh for 30-40 min before the test. A series of graduated von Frey hairs (0.07, 0.16, 0.4, 0.6 and 1 g) was applied in sequence with a protocol of 1 sec on 1 sec off repeated 10 times. […] The force applied to the hind-paw of the animal to induce 5 responses out of 10 trials was recorded as paw withdrawal threshold (PWT).
Baseline PWT was assessed on three consecutive days (Day-3, Day-2 and Day-1). […]
Mechanical allodynia was re-assessed on Day 3 and 4 post-administration of a single dose of Oxaliplatin to monitor the development of allodynia. […]
Mechanical allodynia was re-assessed on Day 5 (4 hours post dose) and thereafter determined on Days 6 and 7 after administration of Oxaliplatin (i.e. 24 hours and 48 hours post FC2-13 treatment). […]

[5] = highest concentration tested 10 μM

Substance	activity at GalR3 (in words) [1]	GalR2 Calcium, mean pEC50 [2]	GalR2 activity (calcium assay), warhead length [2, 5]	MED, reversal of hyperalgesia induced by CFA [3]	duration of reversal of hyperalgesia induced by CFA [3]	reversal of Oxaliplatin-induced mechanical hyperalgesia [4]	GalR2 activity (calcium assay), linker variants ([2]; Table 7, highest concentration tested 10 μM)
Gal2-30FC: galanin 2-30, AEAAAKEAAAKA linker, human IgG1 FC; SEQ ID NO: 28	no measurable activity	6.6 +/− 0.3	6.8 +/− 0.1				
Gal2-13FC: galanin 2-13, AEAAAKEAAAKA linker, human IgG1 FC; SEQ ID NO: 7	no measurable activity	6.3 +/− 0.3	6.4 +/− 0.1	≤ 1 mg/kg i.p.	≥ 72 h	efficacious	6.4 +/− 0.1
